Literature values in patent US20140295424.

Tested on: IgE (human myeloma IgE) (Homo sapiens)
Settings: CITED; KD stated for purchased aptamer D17.4, no measurement described; cited from earlier work

Sequence: GCCTGTTGTGAGCCTCCTGTCGAAGCACGTTTATCCGTCCCTCCTAGTGGCGTGCTTGAGCGTTTATTCTTGTCTCCC [IgE aptamer D17.4]
- Kd: 10 nM
